From article PMC11053023, “Mechanism of Ψ-Pro/C-degron recognition by the CRL2^FEM1B ubiquitin ligase” (Nature Communications, 2024)

Molecular target: FEM1B-EB-EC ternary complex (human) (UniProt Q9UK73)
Experiment: SEC; peaks of the purified FEM1B-EB-EC complexes (Supplementary Fig. 1g); how the masses were found is not given

stoichiometry N: 2
Substance: FEM1B-EB-EC ternary complex (from UniProt Q9UK73 1-627; Q15370 1-118; Q15369 17-112)
